# Assay results published in PMC2637916.
# How the values were obtained:
# [1] = target: Guanylyl cyclase activating protein 1 (GCAP1), recombinant, with the D6S mutation (UniProt P46065); assay: SEC
# [2] = target: Guanylyl cyclase activating protein 1 (GCAP1), recombinant, with the D6S mutation (UniProt P46065); assay: pulsed-field gradient diffusion NMR
substance,measurement,setting,value
"Guanylyl cyclase activating protein 1 (GCAP1), recombinant, with the D6S mutation (from UniProt P46065 1-205) (natural protein)",stoichiometry N,[1],2
same,stoichiometry N,[2],2
